Measurements reported in patent US20210388083A1.

Legend:
[1] = molecular target: histidine-tagged human FcRn (human) (UniProt P55899); assay: BLI (Octet Red384); His-tagged receptor (row FcRn) on anti-Penta-HIS biosensor; antibody 75-1000 nM, PBS pH 5.8; global 1:1 fit
[2] = molecular target: histidine-tagged human FcRn (human) (UniProt P55899); assay: BLI (Octet Red384); His-tagged receptor on anti-Penta-HIS biosensor; antibody 75-1000 nM, PBS pH 5.8; global 1:1 fit
[3] = molecular target: histidine-tagged mouse FcRn (mouse) (UniProt Q61559); assay: as above
[4] = molecular target: histidine-tagged human FcγRIIIa-158V (human) (UniProt P08637); assay: BLI (Octet Red384); His-tagged receptor on anti-Penta-HIS biosensor; antibody 125-4000 nM, PBS pH 7.2; global 1:1 fit
[5] = molecular target: histidine-tagged mouse FcγRIV (mouse); assay: as above
[6] = molecular target: histidine-tagged human FcγRIIIa-158F (human) (UniProt P08637); assay: as above
[7] = molecular target: histidine-tagged human FcγRIIIa-158V (human) (UniProt P08637); assay: BLI (Octet Red384); His-tagged receptor on anti-Penta-HIS biosensor; antibody 15.6-500 nM, PBS pH 7.2; global 1:1 fit
[8] = molecular target: histidine-tagged mouse FcRn (mouse) (UniProt Q61559); assay: BLI (Octet Red384); His-tagged receptor (row moFcRn) on anti-Penta-HIS biosensor; antibody 75-1000 nM, PBS pH 5.8; global 1:1 fit
[9] = molecular target: histidine-tagged human FcγRIIIa-158V (human) (UniProt P08637); assay: BLI (Octet Red384); His-tagged receptor (row FcγRIIIA (V158)) on anti-Penta-HIS biosensor; antibody 125-4000 nM, PBS pH 7.2; global 1:1 fit
[10] = molecular target: histidine-tagged human FcγRIIIa-158F (human) (UniProt P08637); assay: BLI (Octet Red384); His-tagged receptor (row FcγRIIIA (F158)) on anti-Penta-HIS biosensor; antibody 125-4000 nM, PBS pH 7.2; global 1:1 fit
[11] = molecular target: histidine-tagged mouse FcγRIV (mouse); assay: BLI (Octet Red384); His-tagged receptor (row moFcγRIV) on anti-Penta-HIS biosensor; antibody 125-4000 nM, PBS pH 7.2; global 1:1 fit

Kd [1] | Kd [2] | Kd [3] | Kd [4] | Kd [5] | Kd [6] | Kd [7] | Kd [8] | Kd [9] | Kd [10] | Kd [11] | koff [7] | kon [7] | Substance
0.0337 µM | 0.0337 µM | 0.0151 µM | 0.661 µM | 0.544 µM | 2.23 µM | 0.317 µM | 0.0151 µM | 0.661 µM | 2.23 µM | 0.544 µM |  |  | antigen-binding molecule specific for HER3 comprising Wildtype (WT) Fc, human IgG1 (G1m3 allotype) (antibody)
 |  |  |  |  |  | 0.035 µM |  |  |  |  | 0.0072 s⁻¹ | 200000 M⁻¹ s⁻¹ | antigen-binding molecule specific for HER3 comprising GASDIE Fc, human IgG1 (G1m3 allotype) (antibody)
 |  |  |  |  |  | 0.115 µM |  |  |  |  | 0.017 s⁻¹ | 150000 M⁻¹ s⁻¹ | antigen-binding molecule specific for HER3 comprising GASD Fc, human IgG1 (G1m3 allotype) (antibody)
 |  |  |  |  |  | 0.024 µM |  |  |  |  | 0.0052 s⁻¹ | 220000 M⁻¹ s⁻¹ | antigen-binding molecule specific for HER3 comprising GASDALIE Fc, human IgG1 (G1m3 allotype) (antibody)
